# Laboratory results taken from US20130281659.
# Experiments:
# [1] = biological target: K48C, K63C-linked branched Ub trimer
# [2] = biological target: K6C, K48C-linked branched Ub trimer
# [3] = biological target: K11C, K48C-linked branched Ub trimer
Protein,"DUB-catalyzed hydrolysis of Ub trimer, SDS-PAGE and western blot [1]","DUB-catalyzed hydrolysis of Ub trimer, SDS-PAGE and western blot [2]","DUB-catalyzed hydrolysis of Ub trimer, SDS-PAGE and western blot [3]"
IsoT (protein) MAELSEEALLSVLPTIRVPKAGDRVHKDECAFSFDTPESEGGLYICMNTFLGFGKQYVERHFNKTGQRVYLHLRRTRRPKEEDPATGTGDPPRKKPTRLAIGVEGGFDLSEEKFELDEDVKIVILPDYLEIARDGLGGLPDIVRDRVTSAVEALLSADSASRKQEVQAWDGEVRQVSKHAFSLKQLDNPARIPPCGWKCSKCDMRENLWLNLTDGSILCGRRYFDGSGGNNHAVEHYRETGYPLAVKLGTITPDGADVYSYDEDDMVLDPSLAEHLSHFGIDMLKMQKTDKTMTELEIDMNQRIGEWELIQESGVPLKPLFGPGYTGIRNLGNSCYLNSVVQVLFSIPDFQRKYVDKLEKIFQNAPTDPTQDFSTQVAKLGHGLLSGEYSKPVPESGDGERVPEQKEVQDGIAPRMFKALIGKGHPEFSTNRQQDAQEFFLHLINMVERNCRSSENPNEVFRFLVEEKIKCLATEKVKYTQRVDYIMQLPVPMDAALNKEELLEYEEKKRQAEEEKMALPELVRAQVPFSSCLEAYGAPEQVDDFWSTALQAKSVAVKTTRFASFPDYLVIQIKKFTFGLDWVPKKLDVSIEMPEELDISQLRGTGLQPGEEELPDIAPPLVTPDEPKGSLGFYGNEDEDSFCSPHFSSPTSPMLDESVIIQLVEMGFPMDACRKAVYYTGNSGAEAAMNWVMSHMDDPDFANPLILPGSSGPGSTSAAADPPPEDCVTTIVSMGFSRDQALKALRATNNSLERAVDWIFSHIDDLDAEAAMDISEGRSAADSISESVPVGPKVRDGPGKYQLFAFISHMGTSTMCGHYVCHIKKEGRWVIYNDQKVCASEKPPKDLGYIYFYQRVAS,IsoT efficiently processed all three trimers as evidenced by Western blot analysis,IsoT efficiently processed all three trimers as evidenced by Western blot analysis,IsoT efficiently processed all three trimers as evidenced by Western blot analysis
AMSH (protein) MSDHGDVSLPPEDRVRALSQLGSAVEVNEDIPPRRYFRSGVEIIRMASIYSEEGNIEHAFILYNKYITLFIEKLPKHRDYKSAVIPEKKDTVKKLKEIAFPKAEELKAELLKRYTKEYTEYNEEKKKEAEELARNMAIQQELEKEKQRVAQQKQQQLEQEQFHAFEEMIRNQELEKERLKIVQEFGKVDPGLGGPLVPDLEKPSLDVFPTLTVSSIQPSDCHTTVRPAKPPVVDRSLKPGALSNSESIPTIDGLRHVVVPGRLCPQFLQLASANTARGVETCGILCGKLMRNEFTITHVLIPKQSAGSDYCNTENEEELFLIQDQQGLITLGWIHTHPTQTAFLSSVDLHTHCSYQMMLPESVAIVCSPKFQETGFFKLTDHGLEEISSCRQKGFHPHSKDPPLFCSCSHVTVVDRAVTITDLR,"the presence of a Ub appendage at position 48 does not influence cleavage of the K63C-linkage as indicated by the formation of Ub2 and Ub upon hydrolysis of the K48C, K63C-linked trimer",,
A20-OTU (protein) LVALKTNGDGNCLMHATSQYMWGVQDTDLVLRKALFSTLKETDTRNFKFRWQLESLKSQEFVETGLCYDTRNWNDEWDNLIKMASTDTPMARSGLQYNSLEEIHIFVLCNILRRPIIVISDKMLRSLESGSNFAPLKVGGIYLPLHWPAQECYRYPIVLGYDSHHFVPLVTL,"A20-OTU cleaved the K48C-linkage in K11C, K48C and K48C, K63C-linked trimers","the same linkage remained intact in the K6C, K48C-linked trimer","A20-OTU cleaved the K48C-linkage in K11C, K48C and K48C, K63C-linked trimers"
